Key:
[1] = biological target: complex I (NADH dehydrogenase) (bovine (endogenous in bovine heart)); assay: absorption spectroscopy of the co-purified supercomplex; concentrations of b-type and c-type cytochromes (redox difference spectra) and of complex IV (reduced form) in eight supercomplex samples, room temperature, HEPES-Na pH 7.8 with sucrose
[2] = biological target: complex IV (cytochrome c oxidase) (bovine (endogenous in bovine heart)); assay: native gel or EMSA; BN-PAGE of bovine heart mitochondria solubilized with digitonin
[3] = biological target: complex III (cytochrome c reductase/cytochrome bc1 complex) (bovine (endogenous in bovine heart)) (UniProt P00157); assay: co-sedimentation + native gel or EMSA; crystalline complex III exchanged into amphipol, stepwise sucrose gradient 0.8-1.2 M in HEPES-Na pH 7.8, 105,000 x g, 15 h, 4 C; fractions by BN-PAGE
[4] = biological target: complex IV (cytochrome c oxidase) (bovine (endogenous in bovine heart)); assay: absorption spectroscopy of the co-purified supercomplex; concentrations of b-type and c-type cytochromes (redox difference spectra) and of complex IV (reduced form) in eight supercomplex samples, room temperature, HEPES-Na pH 7.8 with sucrose

stoichiometry N [2] | stoichiometry N [3] | ratio b-type cytochrome/complex IV1 (average) (b-type cytochrome per complex IV monomer) [4] | ratio c-type cytochrome/complex IV1 (average) (c-type cytochrome per complex IV monomer) [4] | stoichiometry N (complex III per complex IV) [4] | Substance | stoichiometry N (complex IV per complex I) [1] | stoichiometry N (complex III per complex I) [1]
2 | – | – | – | – | complex IV (cytochrome c oxidase) | 1 | –
– | 2 | 3.88 | 2.2 | 2 | complex III (cytochrome c reductase/cytochrome bc1 complex) (from UniProt P00157 1-379; P00125 85-325) | – | 2

— PMC4759192
